{"source": "patent US20110288003A1", "about": "(INDIANA UNIVERSITY RESEARCH AND TECHNOLOGY, published 2011)", "binders": {"B1": {"name": "E9, K12, E16 glucagon(6-39) (Table 13, peptide 1) (peptide)", "peptide": "FTSEYSKYLDERRAQDFVQWLMNTGPSSGAPPPS"}, "B2": {"name": "E9, E16K20(lactam) glucagon(6-39) (Table 13, peptide 3) (peptide)", "peptide": "B1 peptide with Q15K", "modifications": "lactam 11-15"}, "B3": {"name": "D9, K12E16(Lactam) glucagon(6-39) (Table 13, peptide 4) (peptide)", "peptide": "B1 peptide with E4D", "modifications": "lactam 7-11"}, "B4": {"name": "E9, K12E16(lactam) glucagon(6-39) (Table 13, peptide 2) (peptide)", "peptide": "B1 peptide", "modifications": "lactam 7-11"}, "B5": {"name": "[A2E3, E16K20(Lactam), D28]G(2~29) (peptide)", "peptide": "AEGTFTSEYSKYLDERRAKDFVQWLMDT", "modifications": "lactam 15-19"}, "B6": {"name": "[PLA6, D9, E16, K20E24(Lactam), D28]G(6-29) (peptide)", "peptide": "{PLA}-TSDYSKYLDERRAKDFVEWLMDT", "modifications": "lactam 14-18"}, "B7": {"name": "[PLA6, D9, E16K20(lactam), D28]G(6-29) (peptide)", "peptide": "{PLA}-TSDYSKYLDERRAKDFVQWLMDT", "modifications": "lactam 10-14"}, "B8": {"name": "[PLA6, E9, K12E16(Lactam) glucagon(6-39) (Table 13, peptide 5) (peptide)", "peptide": "{PLA}-TSEYSKYLDERRAQDFVQWLMNTGPSSGAPPPS", "modifications": "lactam 6-10"}, "B9": {"name": "ANK2 (Bayer peptide) (peptide)", "peptide": "HSQGTFTSDYARYLDARRAREFIKWLVRGRG"}, "B10": {"name": "[A2E3, E16K20(Lactam), D28]G(1~29) (peptide)", "peptide": "HAEGTFTSEYSKYLDERRAKDFVQWLMDT-NH2", "modifications": "lactam 16-20; N-terminus assumed", "SMILES": "CSCC[C@H](NC(=O)[C@H](CC(C)C)NC(=O)[C@H](Cc1c[nH]c2ccccc12)NC(=O)[C@H](CCC(N)=O)NC(=O)[C@@H](NC(=O)[C@H](Cc1ccccc1)NC(=O)[C@H](CC(=O)O)NC(=O)[C@@H]1CCCCNC(=O)CC[C@H](NC(=O)[C@H](CC(=O)O)NC(=O)[C@H](CC(C)C)NC(=O)[C@H](Cc2ccc(O)cc2)NC(=O)[C@H](CCCCN)NC(=O)[C@H](CO)NC(=O)[C@H](Cc2ccc(O)cc2)NC(=O)[C@H](CCC(=O)O)NC(=O)[C@H](CO)NC(=O)[C@@H](NC(=O)[C@H](Cc2ccccc2)NC(=O)[C@@H](NC(=O)CNC(=O)[C@H](CCC(=O)O)NC(=O)[C@H](C)NC(=O)[C@@H](N)Cc2c[nH]cn2)[C@@H](C)O)[C@@H](C)O)C(=O)N[C@@H](CCCNC(=N)N)C(=O)N[C@@H](CCCNC(=N)N)C(=O)N[C@@H](C)C(=O)N1)C(C)C)C(=O)N[C@@H](CC(=O)O)C(=O)N[C@H](C(N)=O)[C@@H](C)O"}, "B11": {"name": "[PLA6, E9, E16K20(Lactam)] glucagon(6-39) (Table 13, peptide 6) (peptide)", "peptide": "TSEYSKYLDERRAKDFVQWLMNTGPSSGAPPPS", "modifications": "PLA (phenyl lactic acid, in place of Phe6 of glucagon) at the N-terminus before the printed letters; lactam between E16 and K20 (glucagon numbering)"}, "B12": {"name": "[E9, E16K20(lactam), D28]G(4~29) (peptide)", "peptide": "GTFTSEYSKYLDERRAKDFVQWLMDT-NH2", "modifications": "lactam 13-17; N-terminus assumed", "SMILES": "CSCC[C@H](NC(=O)[C@H](CC(C)C)NC(=O)[C@H](Cc1c[nH]c2ccccc12)NC(=O)[C@H](CCC(N)=O)NC(=O)[C@@H](NC(=O)[C@H](Cc1ccccc1)NC(=O)[C@H](CC(=O)O)NC(=O)[C@@H]1CCCCNC(=O)CC[C@H](NC(=O)[C@H](CC(=O)O)NC(=O)[C@H](CC(C)C)NC(=O)[C@H](Cc2ccc(O)cc2)NC(=O)[C@H](CCCCN)NC(=O)[C@H](CO)NC(=O)[C@H](Cc2ccc(O)cc2)NC(=O)[C@H](CCC(=O)O)NC(=O)[C@H](CO)NC(=O)[C@@H](NC(=O)[C@H](Cc2ccccc2)NC(=O)[C@@H](NC(=O)CN)[C@@H](C)O)[C@@H](C)O)C(=O)N[C@@H](CCCNC(=N)N)C(=O)N[C@@H](CCCNC(=N)N)C(=O)N[C@@H](C)C(=O)N1)C(C)C)C(=O)N[C@@H](CC(=O)O)C(=O)N[C@H](C(N)=O)[C@@H](C)O"}, "B13": {"name": "[PLA6, D9, E16, E24K28(lactam)]G(6~29) (peptide)", "peptide": "{PLA}-TSDYSKYLDERRAQDFVEWLMKT", "modifications": "lactam 18-22"}, "B14": {"name": "[PLA6, D9, K12E16(Lactam), D28]G(6-29) (peptide)", "peptide": "{PLA}-TSDYSKYLDERRAQDFVQWLMDT", "modifications": "lactam 6-10"}}, "test_in_all_cases": "cell-based or functional assay", "key": {"glucagon receptor [1]": {"molecular_target": "T1, glucagon receptor (UniProt P47871 26-477, limits assumed)", "T1 sequence (P47871 26-477 limits assumed)": "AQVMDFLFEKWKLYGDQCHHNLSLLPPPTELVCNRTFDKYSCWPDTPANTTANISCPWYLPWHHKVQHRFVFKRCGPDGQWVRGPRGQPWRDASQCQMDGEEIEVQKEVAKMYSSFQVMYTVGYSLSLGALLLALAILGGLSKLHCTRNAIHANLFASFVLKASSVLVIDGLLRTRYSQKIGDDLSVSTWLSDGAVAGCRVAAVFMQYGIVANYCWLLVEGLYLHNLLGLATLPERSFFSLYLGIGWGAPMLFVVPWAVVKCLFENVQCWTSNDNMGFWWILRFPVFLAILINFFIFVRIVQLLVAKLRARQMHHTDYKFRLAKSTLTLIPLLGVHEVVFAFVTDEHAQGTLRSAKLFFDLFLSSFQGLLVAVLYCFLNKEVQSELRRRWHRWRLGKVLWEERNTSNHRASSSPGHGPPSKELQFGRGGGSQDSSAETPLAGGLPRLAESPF"}, "glucagon receptor [2]": {"molecular_target": "T1, glucagon receptor", "remark": "listed apart in the source"}, "GLP-1 receptor [3]": {"molecular_target": "T2, GLP-1 receptor (UniProt P43220 24-463, limits assumed)"}, "GLP-1 receptor [4]": {"molecular_target": "T2, GLP-1 receptor", "remark": "listed apart in the source"}, "glucagon receptor [5]": {"molecular_target": "T1, glucagon receptor", "remark": "listed apart in the source"}, "GLP-1 receptor [6]": {"molecular_target": "T2, GLP-1 receptor", "remark": "listed apart in the source"}}, "note": "Substitutions are numbered along the chain they refer to. Like-named read-outs stand apart in the source and are kept apart here. Bridge positions count the residues as written; N and C are the ends. Ends that are not written are not given here. PLA = phenyl lactic acid"}
{"binder": "B1", "values": [{"measurement": "Glu IC50", "setting": "glucagon receptor [1]", "result": 762, "unit": "nM"}, {"measurement": "Glucagon IC50", "setting": "glucagon receptor [2]", "result": 762, "unit": "nM"}]}
{"binder": "B2", "values": [{"measurement": "Glu IC50", "setting": "glucagon receptor [1]", "result": 42, "unit": "nM"}, {"measurement": "GLP-1 EC50", "setting": "GLP-1 receptor [3]", "result": 36, "unit": "nM"}, {"measurement": "Glucagon IC50", "setting": "glucagon receptor [2]", "result": 42, "unit": "nM"}, {"measurement": "GLP-1 EC50", "setting": "GLP-1 receptor [4]", "result": 36, "unit": "nM"}]}
{"binder": "B3", "values": [{"measurement": "Glu IC50", "setting": "glucagon receptor [1]", "result": 828, "unit": "nM"}, {"measurement": "GLP-1 EC50", "setting": "GLP-1 receptor [3]", "result": 119, "unit": "nM"}]}
{"binder": "B4", "values": [{"measurement": "Glu IC50", "setting": "glucagon receptor [1]", "result": 2010, "unit": "nM"}, {"measurement": "GLP-1 EC50", "setting": "GLP-1 receptor [3]", "result": 63, "unit": "nM"}, {"measurement": "Glucagon IC50", "setting": "glucagon receptor [2]", "result": 2010, "unit": "nM"}, {"measurement": "GLP-1 EC50", "setting": "GLP-1 receptor [4]", "result": 63, "unit": "nM"}]}
{"binder": "B5", "values": [{"measurement": "Glucagon IC50", "setting": "glucagon receptor [5]", "result": 63, "unit": "nM"}]}
{"binder": "B6", "values": [{"measurement": "Glucagon IC50", "setting": "glucagon receptor [5]", "result": 74, "unit": "nM"}, {"measurement": "GLP-1 EC50", "setting": "GLP-1 receptor [6]", "result": 239, "unit": "nM"}]}
{"binder": "B7", "values": [{"measurement": "Glucagon IC50", "setting": "glucagon receptor [5]", "result": "10 to 30", "unit": "nM"}, {"measurement": "Glucagon IC50", "setting": "glucagon receptor [2]", "result": 6, "unit": "nM"}, {"measurement": "GLP-1 EC50", "setting": "GLP-1 receptor [4]", "result": 4, "unit": "nM"}]}
{"binder": "B8", "values": [{"measurement": "Glu IC50", "setting": "glucagon receptor [1]", "result": 72, "unit": "nM"}, {"measurement": "GLP-1 EC50", "setting": "GLP-1 receptor [3]", "result": 6, "unit": "nM"}]}
{"binder": "B9", "values": [{"measurement": "GLP-1 EC50", "setting": "GLP-1 receptor [6]", "result": 0.28, "unit": "nM"}]}
{"binder": "B10", "values": [{"measurement": "Glucagon IC50 (nM); PA = partial antagonist", "setting": "glucagon receptor [5]", "result": 130, "unit": "nM"}, {"measurement": "GLP-1 EC50", "setting": "GLP-1 receptor [6]", "result": 0.2, "unit": "nM"}]}
{"binder": "B11", "values": [{"measurement": "GLP-1 EC50", "setting": "GLP-1 receptor [4]", "result": 20, "unit": "nM"}]}
{"binder": "B12", "values": [{"measurement": "Glucagon IC50", "setting": "glucagon receptor [5]", "result": "10 to 30", "unit": "nM"}, {"measurement": "GLP-1 EC50", "setting": "GLP-1 receptor [6]", "result": 151, "unit": "nM"}]}
{"binder": "B13", "values": [{"measurement": "Glucagon IC50", "setting": "glucagon receptor [5]", "result": 22, "unit": "nM"}, {"measurement": "GLP-1 EC50", "setting": "GLP-1 receptor [6]", "result": 289, "unit": "nM"}]}
{"binder": "B14", "values": [{"measurement": "Glucagon IC50", "setting": "glucagon receptor [5]", "result": 63, "unit": "nM"}, {"measurement": "GLP-1 EC50", "setting": "GLP-1 receptor [6]", "result": 177, "unit": "nM"}]}
